Measurements from patent publication US20250325718A1, “IMMUNOCONJUGATES COMPRISING KALLIKREIN RELATED PEPTIDASE 2 ANTIGEN BINDING DOMAINS AND THEIR USES” (Janssen Biotech, Inc., priority 2021, published 2025).

Test: DTPA challenge of Ac-225 labeled TOPA-[C7]-phenylthiourea-h11B6 (iTLC)
Type: physicochemical
Details: for DTPA challenge: chelated Ac-225 (iTLC): labeling reaction mixture, 10 mM DTPA pH 6.5, 37° C., 30 min
Procedure: 0.5 μL of the labeling reaction mixture was also mixed with 10 mM DTPA (pH=6.5, 15 μL) at 37° C. After 30 min, 10 μL of the mixture was spotted on iTLC-SG and developed by 10 mM EDTA. The dried iTLC-SG was left at room temperature for overnight before it was scanned on a Bioscan AR-2000 radio-TLC scanner. Under the elution conditions described herein, TOPA-[C7]-phenylthiourea-h11B6 chelated Ac-225 ^st ayed at the origin and any free Ac-225 would migrate with the solvent to the solvent front.
10 μL of fraction #3 collected after PD-10 column was mixed with 15 μL of 10 mM DTPA solution (pH 6.5), and incubated for 30 min. 10 μL of the mixture was loaded onto an iTLC-SG, which was developed with 10 mM EDTA and dried overnight. It was scanned on a Bioscan AR-2000 radio-TLC scanner.

[1] = 25 mM NaOAc, 0.04% PS-20, pH 5.5 (conjugate 10.4 mg/mL)
[2] = 1.0M NaOAc, 0.04% PS-20 (conjugate 9.36 mg/mL)
[3] = 1.5M NaOAc, 0.04% PS-20 (conjugate 9.36 mg/mL)
[4] = 3M NaOAc buffer (conjugate […])

Substance	DTPA challenge: chelated Ac-225 (iTLC) [1] [%]	DTPA challenge: chelated Ac-225 (iTLC) [2] [%]	DTPA challenge: chelated Ac-225 (iTLC) [3] [%]	DTPA challenge: chelated Ac-225 (iTLC) [4] [%]	DTPA challenge of the purified conjugate: free Ac-225 (iTLC) (fraction #3 after PD-10 column, 10 mM DTPA pH 6.5, 30 min)
TOPA-[C7]-phenylthiourea-h11B6 Antibody Conjugate [Example 20]	>99	>99	>99	>99	
Ac-225 labeled TOPA-[C7]-phenylthiourea-h11B6 antibody conjugate [Example 21]	99.8	99.9	99.9	99.7	no free Ac-225
